In PMC10556095, “A natural mutation in the promoter of Ms-cd1 causes dominant male sterility in Brassica oleracea”:

Columns and labels:
[1] = molecular target: T1, BoERF1L-His (His-BoERF1L; Methods: His-BoERF1) (Brassica oleracea, UniProt A0A0D3ABA8 1-210); assay: EMSA; EMSA: 10 µL with 2 µg protein, 20 fmol biotin-labeled DNA, 2 µL 5x EMSA/Gel-Shift Binding Buffer (GS005, Beyotime); 6% polyacrylamide gel; salt, pH and temperature not stated; conditions: protein: recombinant, tags: His (Methods: C-terminal; pET-SUMO vector)
T1 sequence (A0A0D3ABA8 entry or part of it): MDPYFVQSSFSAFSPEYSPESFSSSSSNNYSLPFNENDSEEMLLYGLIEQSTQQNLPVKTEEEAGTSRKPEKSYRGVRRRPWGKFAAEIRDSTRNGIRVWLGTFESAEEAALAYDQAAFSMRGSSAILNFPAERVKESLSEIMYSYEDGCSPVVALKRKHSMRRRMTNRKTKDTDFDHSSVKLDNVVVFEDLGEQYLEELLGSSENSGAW

[2] = molecular target: T1, BoERF1L-His (His-BoERF1L; Methods: …); assay: EMSA; unlabeled WTpro at 20x, 30x, 40x competes dose-dependently; EMSA: 10 µL with 2 µg protein, 20 fmol biotin-labeled DNA, 2 µL 5x EMSA/Gel-Shift Binding Buffer (GS005, Beyotime); 6% polyacrylamide gel; salt, pH and temperature not stated; conditions: protein: recombinant; tags: His (Methods: C-terminal; pET-SUMO vector); label: biotin

B1: W1 (dsDNA)
DNA 1: GTGCAGGTAGCTCATG
DNA 2: CATGAGCTACCTGCAC
B1: no binding [1].

B2: WTpro (dsDNA)
DNA 1: GATACATGTAAGTGCAGGTAGCTCATGACAGAAATTGACGGAACACAGAGTTACTCTGATTCTATA
DNA 2: TATAGAATCAGAGTAACTCTGTGTTCCGTCAATTTCTGTCATGAGCTACCTGCACTTACATGTATC
B2: binds [2].

B3: W7 (dsDNA)
DNA 1: CAGAAATTGACGGAAC
DNA 2: GTTCCGTCAATTTCTG
B3: no binding [1].

B4: MTpro (dsDNA)
DNA 1: GATACATGTAAGTGCAGGTAGCTCATGCAGAAATTGACGGAACACAGAGTTACTCTGATTCTATA
DNA 2: TATAGAATCAGAGTAACTCTGTGTTCCGTCAATTTCTGCATGAGCTACCTGCACTTACATGTATC
B4: no binding ([1]; label: biotin).
